Tests used:
[1] = biological target: VLP2 (virus-like particles, capsid protein particles of AAV serotype 2) (AAV serotype 2 (AAV2)) (UniProt P03135); test: ELISA on immobilised VLP2 (culture supernatant); A450 after 1:1 0.1 M glycine-NaOH pH 10.0, 15 min, 51.3°C divided by A450 untreated
[2] = biological target: VLP2 (virus-like particles, capsid protein particles of AAV serotype 2) (AAV serotype 2 (AAV2)) (UniProt P03135); test: ELISA on immobilised VLP2 (purified protein); A450 after 1:1 0.1 M glycine-NaOH pH 10.0, 15 min, 70°C divided by A450 untreated
[3] = biological target: VLP2 (virus-like particles, capsid protein particles of AAV serotype 2) (AAV serotype 2 (AAV2)) (UniProt P03135); test: ELISA on immobilised VLP2 (purified protein); A450 after 1:1 0.1 M glycine-NaOH pH 10.0, 15 min, 55.7°C divided by A450 untreated
[4] = biological target: VLP2 (virus-like particles, capsid protein particles of AAV serotype 2) (AAV serotype 2 (AAV2)) (UniProt P03135); test: ELISA on immobilised VLP2 (purified protein); A450 after 1:1 0.1 M glycine-NaOH pH 10.0, 15 min, 66.1°C divided by A450 untreated
[5] = biological target: VLP2 (virus-like particles, capsid protein particles of AAV serotype 2) (AAV serotype 2 (AAV2)) (UniProt P03135); test: ELISA on immobilised VLP2 (purified protein); A450 after 1:1 0.1 M glycine-NaOH pH 10.0, 15 min, 60.1°C divided by A450 untreated

Sequence of UniProt P03135 (P03135 whole entry): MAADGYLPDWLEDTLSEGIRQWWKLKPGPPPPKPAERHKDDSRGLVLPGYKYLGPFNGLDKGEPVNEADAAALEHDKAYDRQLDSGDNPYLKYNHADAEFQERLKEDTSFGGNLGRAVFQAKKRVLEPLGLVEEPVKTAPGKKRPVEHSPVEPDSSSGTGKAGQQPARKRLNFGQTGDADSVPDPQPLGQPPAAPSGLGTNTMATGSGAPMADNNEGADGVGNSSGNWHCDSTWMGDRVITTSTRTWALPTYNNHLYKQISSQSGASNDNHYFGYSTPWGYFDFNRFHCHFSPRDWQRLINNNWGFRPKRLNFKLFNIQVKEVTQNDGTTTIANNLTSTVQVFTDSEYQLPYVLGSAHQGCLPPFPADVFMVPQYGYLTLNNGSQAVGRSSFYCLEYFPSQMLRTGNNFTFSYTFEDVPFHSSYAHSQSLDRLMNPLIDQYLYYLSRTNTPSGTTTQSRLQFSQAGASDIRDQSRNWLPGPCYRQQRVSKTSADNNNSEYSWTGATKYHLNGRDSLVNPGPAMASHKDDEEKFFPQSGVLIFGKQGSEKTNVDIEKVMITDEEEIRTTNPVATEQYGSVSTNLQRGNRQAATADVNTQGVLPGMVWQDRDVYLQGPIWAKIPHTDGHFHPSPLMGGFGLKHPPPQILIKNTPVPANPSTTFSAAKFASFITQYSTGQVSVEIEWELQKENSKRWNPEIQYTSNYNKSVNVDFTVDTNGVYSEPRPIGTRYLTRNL

B1: AAV-binding protein AVR8g (receptor)
chain: MGSAGESDQITLPKNEVQLNAYVLQEPPKGETCTYDWQLITHPRDYSGEMEGEHSQILKLSNLTPGLYEFKVIVEGQNAHSEGYVNVTVEPEPRKNRPPIAIVSPQFQEISLPTTSTVIDGSQSTDDDKIVQYHWEELKGPLREEKISEDTAILKLSKLVPGNYTFRLTVVDSDGATDSTTANLTVNKAVDHHHHHH
Question: How did the Remaining activity [%] [1] turn out when B1 was run?
Answer: 8.8%

Question: And the Remaining activity [%] [2]?
Answer: 3.77%

Question: And the Remaining activity [%] [3]?
Answer: 0.837%

Question: What about the Remaining activity [%] [4] of the same binder?
Answer: 0%

Question: And the Remaining activity [%] [5]?
Answer: 4.18%
